{"source": "the supplement of paper PMC10724198", "note": "± gives the standard deviation of the averaged measurements.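 Also: PSI is a weighted mean of sequencing reads over stability bins, variants kept only with over 10 reads, mCherry proximal and sfGFP distal, peptide attached via GGGS linker.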"}
{"tested_on": "Saccharomyces cerevisiae", "assay": "protein stability index of tFT-peptide fusion (C-terminal peptide) (PSI (0-1 scale)); higher = more stable (slower turnover)", "conditions": "genetic background: wild type; temperature: 30 C"}
{"sequence": "DPRSPLSHSFLR", "protein stability index": "0.706 ± 0.044"}
{"sequence": "CIRPPPPSPKLM", "protein stability index": "0.694 ± 0.0096"}
{"sequence": "PCLPPPLRLPPN", "protein stability index": "0.631 ± 0.054"}
{"sequence": "GKKKKKERKHGA", "protein stability index": "0.7351 ± 0.0055"}
{"sequence": "QRGRGGRHVTDI", "protein stability index": "0.71 ± 0.069"}
{"sequence": "FGWKTGGRGTVM", "protein stability index": "0.742 ± 0.04"}
{"sequence": "LPNTWLTSLIHQ", "protein stability index": "0.701 ± 0.33"}
{"sequence": "SRGGGWSEGGEG", "protein stability index": "0.716 ± 0.028"}
{"sequence": "TPPSPDPSPPNT", "protein stability index": "0.789 ± 0.046"}
{"sequence": "PPPFPPPSFASR", "protein stability index": "0.696 ± 0.057"}
{"sequence": "GLLDGEILKRRI", "protein stability index": "0.6978 ± 0.0053"}
{"sequence": "HSPVPPLPALPL", "protein stability index": "0.73 ± 0.024"}
{"sequence": "KNKIRLLNKTSK", "protein stability index": "0.6717 ± 0.0014"}
{"sequence": "SPSLPHAPSRPP", "protein stability index": "0.607 ± 0.06"}
{"sequence": "MRPRTSKKPQLE", "protein stability index": "0.744 ± 0.044"}
{"sequence": "KQRGTRGNKANE", "protein stability index": "0.6231 ± 0.0058"}
{"sequence": "PPLTSSPPFSPP", "protein stability index": "0.728 ± 0.09"}
{"sequence": "RCRLGDFLLSFI", "protein stability index": "0.63 ± 0.034"}
{"sequence": "HRFEEGAPAPTE", "protein stability index": "0.704 ± 0.013"}
{"sequence": "SSRCLPPFPLCP", "protein stability index": "0.736 ± 0.11"}
{"sequence": "ALTFYYRGWSGL", "protein stability index": "0.619 ± 0.019"}
{"sequence": "PLHSTPRPPAPG", "protein stability index": "0.706 ± 0.098"}
{"sequence": "HFVDAIPEGIHA", "protein stability index": "0.583 ± 0.023"}
{"sequence": "LVSGRRWMLGSG", "protein stability index": "0.6451 ± 0.0023"}
{"sequence": "KLKIINENKLQN", "protein stability index": "0.618 ± 0.087"}
{"sequence": "ISFFLLYFPPSY", "protein stability index": "0.59 ± 0.024"}
{"sequence": "PSYSFQYRLIQD", "protein stability index": "0.712 ± 0.038"}
{"sequence": "DPFFPPYTPSPS", "protein stability index": "0.782 ± 0.049"}
{"sequence": "VPPVLRPLPPSP", "protein stability index": "0.72 ± 0.025"}
{"sequence": "YHECWRTFTLCV", "protein stability index": "0.532 ± 0.007"}
{"sequence": "GSSYRKNDRQEK", "protein stability index": "0.723 ± 0.048"}
{"sequence": "GGFWLGVGSRVG", "protein stability index": "0.711 ± 0.06"}
{"sequence": "RYLAEKAVLTHN", "protein stability index": "0.659 ± 0.012"}
{"sequence": "RINIDLKKIAKK", "protein stability index": "0.689 ± 0.05"}
{"sequence": "QRKGNLTKTEPV", "protein stability index": "0.676 ± 0.1"}
{"sequence": "GLGRWGCLEGLG", "protein stability index": "0.716 ± 0.071"}
{"sequence": "PLPPLSSPRPPP", "protein stability index": "0.711 ± 0.071"}
{"sequence": "KKKRTKKEREKK", "protein stability index": "0.6612 ± 0.0032"}
{"sequence": "LRECRSWGGAAG", "protein stability index": "0.653 ± 0.029"}
{"sequence": "RAPTRDQCPCPG", "protein stability index": "0.68 ± 0.035"}
{"sequence": "VLPPPRHPLPRP", "protein stability index": "0.698 ± 0.04"}
{"sequence": "DGCLMEHSMQVG", "protein stability index": "0.656 ± 0.035"}
{"sequence": "MYAWPISPRPLL", "protein stability index": "0.738 ± 0.052"}
{"sequence": "HPPLLPPPTPTS", "protein stability index": "0.752 ± 0.062"}
{"sequence": "VACLVGVRGSWV", "protein stability index": "0.66683 ± 0.00048"}
{"sequence": "PHNPTFSPPTCP", "protein stability index": "0.751 ± 0.027"}
{"sequence": "EGSGEGEEAGGV", "protein stability index": "0.6497 ± 0.0047"}
{"sequence": "AWLTTSGLVGSD", "protein stability index": "0.725 ± 0.029"}
{"sequence": "LPPRSRHPSPYA", "protein stability index": "0.654 ± 0.016"}
{"sequence": "LLPLTWTTVQGP", "protein stability index": "0.694 ± 0.027"}
{"sequence": "EKERRATCPGRK", "protein stability index": "0.652 ± 0.051"}
{"sequence": "PPPLSFPSVYLT", "protein stability index": "0.75 ± 0.12"}
{"sequence": "PPSPCRTHRLYI", "protein stability index": "0.629 ± 0.022"}
{"sequence": "TPPLPRFHAPQP", "protein stability index": "0.665 ± 0.017"}
{"sequence": "AGPPPIFGHHTQ", "protein stability index": "0.765 ± 0.036"}
{"sequence": "DGGSGQGMLGGS", "protein stability index": "0.628 ± 0.043"}
{"sequence": "GPLPPPFSALPP", "protein stability index": "0.703 ± 0.024"}
{"sequence": "GGGGIREERVRE", "protein stability index": "0.766 ± 0.19"}
{"sequence": "PPPSPTPGHPQL", "protein stability index": "0.718 ± 0.044"}
{"sequence": "GELCGHSRALHG", "protein stability index": "0.676 ± 0.071"}
{"sequence": "RASLPKSLPVSY", "protein stability index": "0.604 ± 0.07"}
{"sequence": "GLRPPGLRLGSL", "protein stability index": "0.6475 ± 0.0047"}
{"sequence": "CRGGLGASCRGR", "protein stability index": "0.67 ± 0.008"}
{"sequence": "DSCGVFLGDFFQ", "protein stability index": "0.727 ± 0.026"}
{"sequence": "FQVCAPLPISRS", "protein stability index": "0.717 ± 0.029"}
{"sequence": "FPPIHIHSPCYP", "protein stability index": "0.765 ± 0.021"}
{"sequence": "HTEELKKSIKTQ", "protein stability index": "0.637 ± 0.082"}
{"sequence": "SEEAQRKRNTLK", "protein stability index": "0.6715 ± 0.0051"}
{"sequence": "SALVLVLPSIPP", "protein stability index": "0.649 ± 0.024"}
{"sequence": "LVFYSSLPNFSR", "protein stability index": "0.6815 ± 0.0024"}
{"sequence": "SLSWIGLYCCGL", "protein stability index": "0.717 ± 0.051"}
{"sequence": "PPRVSLLTPSPR", "protein stability index": "0.853 ± 0.21"}
{"sequence": "CWPLITTNCTVP", "protein stability index": "0.7081 ± 0.0054"}
{"sequence": "DGKTKKKTRSLR", "protein stability index": "0.652 ± 0.034"}
{"sequence": "EKKLKNEEKKEI", "protein stability index": "0.717 ± 0.04"}
{"sequence": "PRPPHPPPASPP", "protein stability index": "0.58 ± 0.031"}
{"sequence": "GGGGGGSAVEGG", "protein stability index": "0.674 ± 0.066"}
{"sequence": "VLGGLGWVCWVV", "protein stability index": "0.531 ± 0.013"}
{"sequence": "FPRPPSVLACRP", "protein stability index": "0.645 ± 0.088"}
{"sequence": "SPVSPPLVRPPY", "protein stability index": "0.642 ± 0.054"}
{"sequence": "LLRVPPGPIFPS", "protein stability index": "0.661 ± 0.064"}
{"sequence": "LNPPFICFAWLY", "protein stability index": "0.598 ± 0.076"}
{"sequence": "RGRDLSLCQFFY", "protein stability index": "0.7364 ± 0.0024"}
{"sequence": "GEGRGDKGHGWT", "protein stability index": "0.706 ± 0.19"}
{"sequence": "EYRRADYCLGVG", "protein stability index": "0.547 ± 0.011"}
{"sequence": "GSACGSSYKWQM", "protein stability index": "0.614 ± 0.068"}
{"sequence": "SLCTAGCKNELW", "protein stability index": "0.692 ± 0.076"}
{"sequence": "VWGQGTPFRVVM", "protein stability index": "0.655 ± 0.091"}
{"sequence": "GAPPPPPARGDL", "protein stability index": "0.764 ± 0.03"}
{"sequence": "PPLYPPPRDLPP", "protein stability index": "0.5453 ± 0.0038"}
{"sequence": "SMSPAGARCLPR", "protein stability index": "0.782 ± 0.05"}
{"sequence": "VLLLGYDRGWDD", "protein stability index": "0.718 ± 0.015"}
{"sequence": "SFFGRVDSRSLP", "protein stability index": "0.7184 ± 0.0025"}
{"sequence": "KKKKKNSRKKQQ", "protein stability index": "0.7108 ± 0.0018"}
{"sequence": "LSTCHSPSLPAT", "protein stability index": "0.739 ± 0.049"}
{"sequence": "PPEPSYPPLPPR", "protein stability index": "0.717 ± 0.011"}
{"sequence": "RTDKETIKKIVE", "protein stability index": "0.72 ± 0.014"}
{"sequence": "KEKGSRYKRALS", "protein stability index": "0.679 ± 0.014"}
{"sequence": "TARDLEGTRAKG", "protein stability index": "0.638 ± 0.028"}
{"sequence": "CNGPRLFDKSPI", "protein stability index": "0.695 ± 0.017"}
{"sequence": "RAPNSVPSIKKP", "protein stability index": "0.68 ± 0.098"}
